Data published in patent publication US20110165145A1 (published 2011).
Numbering of substitutions follows the chain as printed.

T1: IGF binding protein 2 (BP2) (UniProt P18065 36-325)
T1 construct: also called IGF BP2
T1 sequence (looked up): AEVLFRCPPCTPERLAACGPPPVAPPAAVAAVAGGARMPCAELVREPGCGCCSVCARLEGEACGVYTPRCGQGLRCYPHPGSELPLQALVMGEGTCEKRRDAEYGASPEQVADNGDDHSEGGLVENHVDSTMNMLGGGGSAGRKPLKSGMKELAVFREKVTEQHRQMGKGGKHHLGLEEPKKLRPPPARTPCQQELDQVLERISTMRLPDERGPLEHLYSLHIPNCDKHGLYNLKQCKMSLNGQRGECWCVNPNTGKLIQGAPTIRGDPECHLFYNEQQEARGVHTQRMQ

T2: IGF binding protein 4 (BP4) (UniProt P22692 22-258)
T2 construct: also called IGF BP4
T2 sequence (looked up): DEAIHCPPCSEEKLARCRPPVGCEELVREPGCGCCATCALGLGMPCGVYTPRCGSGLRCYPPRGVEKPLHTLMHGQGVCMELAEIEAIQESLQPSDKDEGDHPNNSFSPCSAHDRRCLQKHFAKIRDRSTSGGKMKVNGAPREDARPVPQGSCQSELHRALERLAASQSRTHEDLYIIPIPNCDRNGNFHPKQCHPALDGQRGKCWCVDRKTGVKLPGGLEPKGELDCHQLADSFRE

B1: M0063-F02 Fab (Fab, V domains shown)
VH: EVQLLESGGGLVQPGGSLRLSCAASGFTFSKYEMDWVRQAPGKGLEWVSVISSSGGGTIYADSVKGRFTISRDNSKNTLYLQMNSLRAEDTAMYYCARGRTLYGGAFDIWGQGTMVTVSS
VL: DIQMTQSPSSLSASVGDRVTITCRASQPINTYLNWYQQRPGKAPRILIYTSSTLQSGVPSRFSGSGSGTDFTLTISSVQPEDFATYYCQQSYSFPLTFGGGTKVEIKR
notes: soluble Fab (sFab); also called R0032-A01
B2: M0064-E04 Fab (Fab, V domains shown)
VH: EVQLLESGGGLVQPGGSLRLSCAASGFTFSVYDMNWVRQAPGKGLEWVSSISSSGGGTLYADSVKGRFTISRDNSKNTLYLQMNSLRAEDTAVYYCARDSDTSSYYWYYDLWGRGTLVTVSS
VL: DIQMTQSPSSLSASVGDRVTITCQASHDISNYLNWYQQKPGKAPKLLIYAASRLQSGVPSRFSGGGSGTDFSLTISSLQAEDFATYYCQQSYSFPRTFGQGTNLEIKR
notes: soluble Fab (sFab); also called R0032-A03; 566A-M0064-E04
B3: M0063-F02 IgG (parental) (antibody, V domains shown)
VH: B1 VH
VL: DIQMTQSPSSLSASVGDRVTITCRASQPINTYLNWYQQRPGKAPRILIYTSSTLQSGVPSRFSGSGSGTDFTLTISSVQPEDFATYYCQQSYSFPLTFGGGTKVEIK
B4: M0064-E04 IgG (parental, non-germlined) (antibody, V domains shown)
VH: B2 VH
VL: DIQMTQSPSSLSASVGDRVTITCQASHDISNYLNWYQQKPGKAPKLLIYAASRLQSGVPSRFSGGGSGTDFSLTISSLQAEDFATYYCQQSYSFPRTFGQGTNLEIK
B5: M0064-F02 IgG (parental, non-germlined) (antibody, V domains shown)
VH: EVQLLESGGGLVQPGGSLRLSCAASGFTFSNYIMWWVRQAPGKGLEWVSVISSSGGMTRYADSVKGRFTISRDNSKNTLYLQMNSLRAEDTAVYYCARDNGDYVGEKGFDIWGQGTMVTVSS
VL: DIQMTQSPSSLSASVGDRVTITCRASQSISNYLNWYQQKPGKAPKLLIYTASTLQSGVPSRFSGSASGTDFTLTINSLQPEDFATYSCQQSYNSPWTFGQGTKVEIK
B6: X0008-A01 (germlined M0064-F02 IgG) (antibody, V domains shown)
VH: B5 VH
VL: B5 VL with A66G, N76S, S87Y

Columns and labels:
[1] = molecular target: T3, insulin-like growth factor II (IGF-II), amino acids 1-67 (human, UniProt P01344 25-91); assay: competition SPR (BIACORE T100), affinity in solution, free ligand read on huIR-A ECD; measurement 2
T3 construct: recombinant; also called IGF-II (67aa); IGF2
T3 sequence (P01344 25-91): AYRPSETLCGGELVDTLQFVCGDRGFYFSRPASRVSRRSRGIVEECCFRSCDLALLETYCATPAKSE
Procedure: (§1) Competition SPR (BIACORE®) was performed under conditions of partially mass-transport limited conditions according to previously described methodology (Nieba et al., 1996). Approximately 16,700 relative response units (RU) of huIR-A (-exon11) ectodomain was coupled by standard amine chemistry to a BIACORE® CM5 chip sensor. Uncoated flow-cell surface was used as a reference. […] Regeneration of the surface was achieved by injection of 30 ul NaCltrate/NaCl pH 4.5. […] These Req estimates were subsequently plotted against total concentrations of Fab used and the resulting inhibition curve was utilised to calculate dissociation constant (KD).

[2] = molecular target: T4, IGF-IIE (amino acids 1-104 of pro-IGF-II) (human, UniProt P01344 25-128); assay: as above
T4 construct: Biotinylated in the selections; also called IGF-IIE (104aa)
T4 sequence (P01344 25-128): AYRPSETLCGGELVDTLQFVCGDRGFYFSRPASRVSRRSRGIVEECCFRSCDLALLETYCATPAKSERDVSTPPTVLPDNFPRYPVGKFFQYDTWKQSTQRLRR
Procedure: as §1

[3] = molecular target: T3, insulin-like growth factor II (IGF-II), …; assay: SPR (Flexchip), Fab, 2nd of duplicate
[4] = molecular target: T4, IGF-IIE (amino acids 1-104 of …); assay: SPR (Flexchip), Fab, 2nd of duplicate
[5] = molecular target: insulin-like growth factor I (IGF-I) (UniProt P05019 49-118); assay: cell-based or functional assay
insulin-like growth factor I (IGF-I), sequence (P05019 49-118 limits assumed): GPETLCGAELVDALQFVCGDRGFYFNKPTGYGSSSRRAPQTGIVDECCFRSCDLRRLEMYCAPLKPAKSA

[6] = molecular target: T3, insulin-like growth factor II (IGF-II), …; assay: cell-based or functional assay
[7] = molecular target: T4, IGF-IIE (amino acids 1-104 of …); assay: cell-based or functional assay
[8] = molecular target: T3, insulin-like growth factor II (IGF-II), …; assay: competition SPR (BIACORE T100), affinity in solution, free ligand read on huIR-A ECD; measurement 1
Procedure: as §1

[9] = molecular target: T4, IGF-IIE (amino acids 1-104 of …); assay: as above
Procedure: as §1

[10] = molecular target: T3, insulin-like growth factor II (IGF-II), …; assay: SPR (Flexchip), Fab, 1st of duplicate
[11] = molecular target: T4, IGF-IIE (amino acids 1-104 of …); assay: SPR (Flexchip), Fab, 1st of duplicate
[12] = molecular target: T3, insulin-like growth factor II (IGF-II), …; assay: SPR, IgG on Protein G', then ligand, then BP; competitor BP2; 0 = no significant competition, 5 = competes strongly
Procedure: (§2) BIACORE® T100 and a CM5 chip coated with Protein G were utilised to set up following assay. Approximately 1000 RU of Protein G′ was immobilized on a CM5 chip using standard amine chemistry immobilization method.
(§3) 4) Protein G′ surface was finally regenerated by injection of 10 mM Glycine pH 1.5-injected at 30 ul/min for 60 sec.

[13] = molecular target: T4, IGF-IIE (amino acids 1-104 of …); assay: as above
Procedure: as §2, §3

[14] = molecular target: T3, insulin-like growth factor II (IGF-II), …; assay: cell-based or functional assay; remark: listed apart in the source
[15] = molecular target: T4, IGF-IIE (amino acids 1-104 of …); assay: cell-based or functional assay; remark: listed apart in the source
[16] = molecular target: T3, insulin-like growth factor II (IGF-II), …; assay: SPR, IgG on Protein G', then ligand, then BP; competitor BP4; 0 = no significant competition, 5 = competes strongly
Procedure: as §2, §3

[17] = molecular target: T4, IGF-IIE (amino acids 1-104 of …); assay: as above
Procedure: as §2, §3

[18] = molecular target: T3, insulin-like growth factor II (IGF-II), …; assay: SPR (BIACORE), IgG
[19] = molecular target: T4, IGF-IIE (amino acids 1-104 of …); assay: SPR (BIACORE), IgG
[20] = molecular target: T1, IGF binding protein 2 (BP2); assay: SPR (BIACORE T100): BP2 injected over M0064-E04 IgG captured on Protein G', with buffer in place of IGF-II
[21] = molecular target: T2, IGF binding protein 4 (BP4); assay: SPR (BIACORE T100): BP4 injected over M0064-E04 IgG captured on Protein G', with buffer in place of IGF-II

Binder	Kd [1] [nM]	Kd [2] [nM]	Kd [3] [nM]	Kd [4] [nM]	IGF-I stimulated Ba/F3 cell proliferation, sFab at 50 µg/ml [5] [% inhibition]	IC50, IGF-II stimulated Ba/F3 cell proliferation (MTS) [6] [µg/mL]	IC50, IGF-IIE stimulated Ba/F3 cell proliferation (MTS) [7] [µg/mL]	Kd [8] [nM]	Kd [9] [nM]	Kd [10] [nM]	Kd [11] [nM]	competition score [12] [score 0-5]	competition score [13] [score 0-5]	IC50, IGF-II stimulated Ba/F3 cell proliferation (Guava ViaCount) [14] [nM]	IC50, IGF-IIE stimulated Ba/F3 cell proliferation (Guava ViaCount) [15] [nM]	competition score [16] [score 0-5]	competition score [17] [score 0-5]	Kd [18] [nM]	Kd [19] [nM]	other results
B1	0.858	1.47	1.6	0.2	~30	5.56	2.04	1.17	2.78	0.77	0.12									
B2	1.11	0.424	0.25	0.12	~30	3.04	5.46	0.608	0.429	0.12	0.093									
B3												1	1	2	0.85	0	1			IC50, IGF-II stimulated Ba/F3 cell proliferation (Guava ViaCount), second study [14]: ~7 nM; IC50, IGF-IIE stimulated Ba/F3 cell proliferation (Guava ViaCount), second study [15]: ~10 nM
B4												5	4	~19	~130	5	4	0.52	0.24	binding result [20]: no binding (tested: 50.0 nM); binding result [21]: no binding (tested: 50.0 nM)
B5												4	4			4	4	0.14	0.032	
B6																		0.023	< 0.023	
